Literature values, collected in US20100209353A1, “TUMOR TARGETING PROTEIN CONJUGATE AND A METHOD FOR PREPARING THE SAME” (KOREA INSTITUTE OF SCIENCE AND TECHNOLOGY, priority 2009, published 2010).

Details: conventional albumin

In the case of albumin, the particle size is given as 2˜5 nm.
